Measured values from patent publication US9243032B2, “Compositions for treatment of neurodegenerative diseases” (Ramot at Tel-Aviv University Ltd., priority 2009, dated 2016).
Values joined by “and” are separate entries in the source; they are usually repeats but may differ in a detail not shown here. Equal values may be shown once. Blank lines part the entries; values can stand above or below the compound they belong to. Square brackets hold non-standard residues; d marks the D form. Ends that are not written are not given here. Peptide text beside a SMILES is read from it.

What was measured:
α-syn monomers = target: T1, α-syn monomers (Homo sapiens, UniProt P37840); assay: Fluorescence anisotropy affinity study; assay type: binding; conditions: FIG. 5B, read-out: affinity constant (Kd) towards α-syn monomers
T1 construct: made in house; host or cells: E. coli BL21, pT7-7 vector
Description: Fluorescence Anisotropy Studies: β-syn 36 in which tyrosine was substituted with tryptophan (SEQ ID NO: 22—[…]) was dissolved to a concentration of 54 μM. The solution was immediately mixed with α-syn monomer stock solution to varying final concentrations. The peptide polarization measurements were carried out using an ISS K2 fluorometer. The solutions were excited at 280 nm and emission was monitored at 350 nm. For each single point, at least five measurements were collected and their average values were used for the calculation. All experiments were performed using ultra pure water.
To determine the affinity of the interaction between β-syn 36 and α-syn monomers, a peptide containing tryptophan instead of tyrosine at position 39 within β-syn was used, exploiting its intrinsic fluorescence in a fluorescence anisotropy assay. […] Increasing amount of α-syn monomers were titrated into a solution of β-syn 36 peptide and anisotropy was determined (FIG. 5B). The affinity constant was calculated as ˜1 μM.

[1] = In vitro peptide stability in mouse brain homogenate; assay type: in vitro ADME; conditions: fresh mouse brain homogenate, 2 hours, 37° C., HPLC, FIGS. 6A-C
Description: In Vitro Assay of Peptide Stability: Peptides were dissolved to form a 1 mM solution in 50 μM Tris buffer (PH=7.6). 120 μl of the peptide solution was diluted into a 10% freshly-taken mouse brain homogenate without the cerebellum (in 1×Tris buffer and 0.5% Triton X-100). A mixture containing 20% peptide solution and 80% mouse brain homogenate was incubated at 37° C. with delicate shaking for 2 hours. The enzyme reaction was stopped by the addition of 0.1 M HCL solution, followed by denaturation of the protein using CH3OH and incubation at 20° C. for 1 hour. The precipitated proteins were centrifuged at 29,000×g for 20 minutes at 4° C. and the supernatant containing the peptide was concentrated under vacuum and separated using a C18 HPLC column. The area of the peak (UV absorbance at 280 nm) corresponding to the intact peptide was compared with an equivalent sample incubated in 50 μM Tris buffer.
Later, the stability of peptide β-syn 36 and the modified retro-inverso peptide was compared using fresh mouse brain homogenate to model serum degradation for a period of 2 hours.

[2] = test system: flies expressing A53T α-syn in their nervous system; assay type: in vivo, Drosophila
Description: Fly Keeping: Flies were reared on standard corneal-molasses medium and were kept at 25° C. Male flies were crossed with virgin females collected no longer than 8 hours or 18 hours after eclosion at 25° C. or 18° C. respectively. Adult offspring (F1) from the crosses were collected up to 9 days after the beginning of their eclosion at 25° C. in order to avoid offspring from the next generation (F2).
Fly Crossing: Male flies carrying the driver elav-Ga14 on their X chromosome were crossed with females carrying the A53T α-syn transgene located on their X chromosome under the UAS promoter. […] Offspring of male flies carrying the driver elav-Ga14 crossed with WT OR females served as control.
Special Fly Feeding: β-syn retro-inverso peptide was added to standard corneal-molasses medium at a concentration of 0.75 mg/ml. The peptide was mixed thoroughly into the medium at 40° C. and the mixture was aliquot into rearing vials. The vials were kept at 4° C. until use. Crosses were performed either on regular Drosophila medium (control) or on medium supplemented with the peptide. Animals were fed on the appropriate medium from the beginning of the larval stage. After eclosion, offspring were transferred into a new vial that was pre-dripped with 0.75 mg/ml peptide solution every second day.
Locomotive (Climbing) Assay: Test tubes, each containing 10 flies, were tapped gently on the table and were let stand for 20 seconds. The percent of flies which climbed about one centimeter from the bottom of the test tube was then calculated over time. Each class had five independent test tube repeats.
In order to assess the effect of the peptide on α-syn in the living organism, a Drosophila model of PD was used. The transgenic flies over express the mutated […] α-syn in their nervous system, via the Gal4-UAS system. A common behavioral phenotype of these flies is defective locomotion; while normal flies tend to climb up along the tube, these flies remain at the bottom (Ueda et al., (1993) Proc Natl Acad Sci USA 90(23), 11282-11286). […] This cross was performed either on regular Drosophila medium or on medium supplemented with 0.75 mg/mL β-syn 36 retro-inverso peptide.

α-syn [3] = target: T2, α-syn (Homo sapiens, UniProt P37840); assay: ThT fluorescence assay of α-syn fibril formation; assay type: biochemical; conditions: for inhibition of fibril formation: as summarised in Example 4; for dose-dependent inhibition of α-syn aggregation: FIG. 3C
T2 construct: made in house; host or cells: E. coli BL21, pT7-7 vector
Description: ThT Florescence Assay: α-syn was dissolved to a concentration of 200 μM in 100 mM Tris buffer (pH 7.4). In order to obtain the monomeric fraction, the protein was filtered through a 100 kDa centricon. Since α-syn is not a globular protein but a natively unfolded one, only monomers and some dimers pass through the filter. […] The samples were incubated at 37° C. with agitation of 850 RPM as described by Tsigelny et al. (Tsigelny et al., 2007 Febs J 274(7), 1862-1877) and the fibrillogenesis rate was followed by thioflavin T (ThT) fluorescence assay (excitation at 450 nm, 2.5 nm slit, and emission at 480 nm, 5 nm slit), after three days of incubation. ThT was added to a 500-fold diluted sample and measured using a Jobin Yvon Horiba Fluoromax 3 fluorimeter.
In order to examine the inhibitory effect of the peptides on α-syn fibril formation, the Thioflavin-T (ThT) binding assay was used. This method provides quantitative information on amyloid fibril growth. α-syn was incubated for several days at 37° C. with vigorous shaking to allow the formation of amyloid fibrils with or without the different β-syn-derived peptides. The fibrillization process was monitored for three days.

α-syn [4] = target: T2, α-syn; assay: Soluble oligomer formation, Western blot; assay type: biochemical; conditions: soluble fraction, ~20-24 hours incubation, FIG. 4B
Description: Determination of Soluble Oligomer Formation: Monomeric α-syn was dissolved to a concentration of 200 μM in 100 mM Tris buffer (pH 7.4) and was immediately mixed with or without different β-syn derived peptides at a 1:1 ration to a final concentration of 100 μM, as was described above for the aggregation assay. […], 10 μl of the protein were centrifuged at 13000 RPM for 10 minutes, the supernatant was collected and electrophoresed in acrylamide gel using native loading buffer without β-mercaptoethanol and boiling. The gel was washed 3 times in ddH2O and samples were then transferred to the nitrocellulose membrane using semi-dry blot technique applying 323 mA current for 30 minutes. The membrane was blocked for 1 hour using 5% milk diluted in TBS (0.3% Tween) while shaking. Anti α-syn diluted 1:1000 (Santa Cruz Biotechnology) in 5% milk in TBS (0.3% tween) was added to the membrane for 2 hours incubation followed by several washes with TBS (0.3% Tween). Rabbit anti mouse IgG (Fc specific)-HRP conjugated antibody diluted 1:5000 in 5% milk diluted in TBS (0.3% Tween) was administrated for 1 hour at RT while shaking. Blots were developed after thorough TBS (0.3% Tween) washes using Enhanced Chemiluminescence System (ECL) according to the manufacturer's instructions.
To examine the ability of the peptides to inhibit the early stage of aggregation, soluble fractions of α-syn were collected after incubation with the β-syn peptides. The reaction mixtures were separated using SDS-PAGE followed by western blot analysis using a specific anti α-syn antibody (Santa-Cruz) (FIG. 4A).

α-syn [5] = target: T2, α-syn; assay: Transmission electron microscopy of α-syn fibrils; assay type: biochemical; conditions: samples from the ThT experiment; FIGS. 3D-K
Description: Transmission Electron Microscopy: Samples (10 μL) from the α-syn ThT fluorescence assay (with and without inhibitors) were placed on 400-mesh copper grids covered by carbon-stabilized Formvar film (SPI Supplies, West Chester, Pa.). After 1.5 minutes, excess fluid was removed, and the grids were negatively stained with 10 μl of 2% uranyl acetate solution for 2 minutes. Finally, excess fluid was removed and the samples were viewed in a JEOL 1200EX electron microscope operating at 80 kV.
Transmission electron microscopy (TEM) analysis was performed on samples of α-syn with and without the β-syn inhibitors.

Compound: CC(C)C[C@H](NC(=O)[C@@H](NC(=O)CN)C(C)C)C(=O)N[C@@H](Cc1c[nH]c2ccccc12)C(=O)N[C@H](C(=O)NCC(=O)N[C@@H](CO)C(=O)N[C@@H](CCCCN)C(=O)N[C@H](C(=O)N[C@@H](CCCNC(=N)N)C(=O)O)[C@@H](C)O)C(C)C (H-GVLWVGSKTR-OH; N-terminus and C-terminus assumed)
Kd (α-syn monomers): ~1000 nM and 1000 nM

Compound: CC(C)C[C@@H](NC(=O)[C@@H](Cc1ccc(O)cc1)NC(=O)[C@H](NC(=O)CNC(=O)[C@@H](CO)NC(=O)[C@@H](CCCCN)NC(=O)[C@H](NC(=O)[C@H](N)CCCNC(=N)N)[C@H](C)O)C(C)C)C(=O)N[C@@H](C(=O)NCC(=O)O)C(C)C [β-syn 36 retro-inverso peptide] (H-[dR][dT][dK][dS]G[dV][dY][dL][dV]G-OH)
stability in brain homogenate [1]: elevation in stability | stability in brain homogenate ([1]; listed as retro-inverso analogue): stable in human serum | increase in climbing compared to untreated group ([2]; A53T α-syn flies, day 27): 30% | percent of flies climbing ([2]; A53T α-syn flies, medium with 0.75 mg/mL peptide, day 27): 66% | effect on locomotion of control flies ([2]; control flies on medium with peptide): no significant effect | phenotypic recovery of A53T α-syn flies ([2]; medium with 0.75 mg/mL peptide): great phenotypic recovery

Compound: YVGSKTR ([dY][dV]G[dS][dK][dT][dR]) [β-syn 36D short, β-syn 36D lacking amino acids G, V, L]
inhibition effect on α-syn aggregation (α-syn [3]; ThT, FIG. 7F): no inhibition effect

Continued, in another order:

inhibition of fibril formation (α-syn [3]): not fibril formation | inhibition of oligomer formation (α-syn [4]): inhibited oligomers
Compound: AATGLVKREE [β-syn 78, decamer, aa 78-87 of β-syn]

dose-dependent inhibition of α-syn aggregation (α-syn [3]; ThT, peptide excess 5:1 (molar ratio)): less efficient | dose-dependent inhibition of α-syn aggregation (α-syn [3]; ThT, peptide excess 10:1 (molar ratio)): still efficient | inhibition of α-syn aggregation, kinetic analysis (α-syn [3]; ThT, β-syn 36 compared with β-syn 39, FIG. 3B): better inhibition
Compound: GVLYVGSKTR [β-syn 36, decamer, aa 36-45 of β-syn, natural L-amino acids]
inhibition of fibril formation (α-syn [3]): inhibited almost completely the formation of both aggregation types | fibril formation by TEM (α-syn [5]): almost completely inhibited fibril formation | inhibition of oligomer formation (α-syn [4]): inhibited almost completely the formation of both aggregation types

inhibition of fibril formation (α-syn [3]): inhibited the fibrils | inhibition of oligomer formation (α-syn [4]): not the oligomers formation
Compound: SMAKEGV [β-syn 6short, seven amino acids peptide, aa 9-15 of β-syn, positive control selected by Windisch et al, reference compound]

inhibition of fibril formation (α-syn [3]): inhibited the fibrils | inhibition of oligomer formation (α-syn [4]): not the oligomers formation
Compound: VLYVGSKTRE [β-syn 37, decamer, aa 37-46 of β-syn]
